Consider two molecules from publication PMC4504729 (Journal of Medicinal Chemistry, 2014).

Assay [1] addresses mouse NGF (nerve growth factor, from mouse submaxillary salivary glands) (mouse) (UniProt P01139).
A further assay concerns the target 125I-labeled NGF (UniProt P01139 122-241, 125I label). Description: radioligand binding; competition: 15N-labeled TrkAIg2-NMR at varied concentration sequesters 125I-labeled NGF from full-length human TrkA on HEK cells. Particulars: both partners purified.
The target in assay [2] is T1, mouse NGF (nerve growth factor, from mouse submaxillary salivary glands) (mouse, UniProt P01139 122-241). Description: SEC; Superdex 75 gel filtration; TrkAIg2-NMR and mouse NGF applied separately and as a 1:1 ratio complex (1 mg/mL of each); 50 mM phosphate buffer, 150 μM NaCl, pH 7.4; sizes from a calibration curve. Conditions: both partners purified. On the technique in general: Size exclusion chromatography separates by hydrodynamic size, large species first.
T1 sequence (P01139 122-241): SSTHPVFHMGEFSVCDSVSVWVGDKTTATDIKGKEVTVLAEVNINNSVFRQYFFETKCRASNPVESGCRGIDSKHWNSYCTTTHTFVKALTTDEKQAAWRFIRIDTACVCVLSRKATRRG

Assay [3] addresses T1, mouse NGF (nerve growth factor, from …). Description: cell-based or functional assay.

Values joined by “and” are separate entries in the source; they are usually repeats but may differ in a detail not shown here. Equal entries are not always repeated.

Sequence of 125I-labeled NGF (P01139 122-241): as above
Sequence of mouse NGF (nerve growth factor, from mouse submaxillary salivary glands) (mouse) (P01139 122-241): as above

“"wild-type" TrkAIg2 (TrkAIg2-WT) (domain or fragment)” gave an NGF-dependent PC12 cell survival/proliferation (MTS assay, mouse NGF 5 ng/mL), serial dilutions of TrkAIg2-WT; EC50 of the reduction in assay [1] of 480 nM.

B1: TrkAIg2-NMR (domain or fragment, human)
chain: MDDDDDVSFCASVQLHTAVEMHHWCIPFSVDGQPAPSLRWLFNGSVLNETSFIFTEFLEPAANETVRHGCLRLNQPTHVNNGNYTLLAANPCGQASASIMAAFMDNPF
The IC50 is the concentration that gives 50% inhibition. The low end stands for inhibition by little substance, the high end for a need for much substance. For the molecule B1, in the assay with 125I-labeled NGF, the IC50 is ~5000 nM and ~2000 nM. In assay [2], the “stoichiometry N” value was 2 TrkAIg2-NMR monomers per NGF dimer. The “NGF-dependent PC12 cell survival/proliferation (MTS assay, mouse NGF 5 ng/mL), serial dilutions of TrkAIg2-NMR; EC50 of the reduction” value in assay [3] came out at 2100 nM.
